Series [1] deals with T1, lysozyme (Gallus gallus, UniProt P00698).
T1 construct: lysozyme from chicken egg white; purchased Sigma-Aldrich; host or cells: chicken egg white (natural source)
Nature of the series: Fluorescence quenching studies. Format: binding, chicken. The method, then:
The fluorescence emission spectra of the HA-EGCG/lysozyme particles, HA/lysozyme mixtures, free lysozyme alone, free HA-EGCG carrier or free HA alone were measured at an excitation wavelength of 280 nm using a fluorescence spectrophotometer (Hitachi, Japan). Difference spectra between the HA-EGCG/lysozyme particles and HA-EGCG were obtained to determine the net fluorescence of lysozyme in particles of varying HA-EGCG concentrations. The same was done for HA/lysozyme mixtures.

Series [2] deals with T1, lysozyme. The series is described as follows: Lysozyme activity assay (M. lysodeikticus turbidity). Type of series: biochemical, chicken. The method, then: To determine the activity of lysozyme, 20 μl of sample containing either free lysozyme or HA-EGCG/lysozyme particles was added to a well of a 96-well assay plate, followed by 100 μl of M. lysodeikticus (0.15% (w/v) in PBS). The decrease in turbidity was monitored by a Tecan Infinite 200 microplate reader by measuring the absorbance of the sample at 450 nm at room temperature every 3 min for 15 min. The absorbance decay plot was fitted to a linear equation, and the slopes were used to determine iysozyme activity. Regarding the restoration of activity of lysozyme that is complexed with HA-EGCG, the following protocol was used: the HA-EGCG/lysozyme particles were first allowed to self-assemble for 10 min at room temperature, with free lysozyme diluted with PBS as a control. A constant volume of Triton-X of different concentrations was then added to each sample (to a final concentration of 0.001, 0.01 or 0.1% w/v), incubated at room temperature for a further 5 min before the lysozyme substrate, M. lysodeikticus, was added, and the absorbance monitored as described above.

A further series concerns HCT-116 cells. The series is described as follows: Cell viability studies (AlamarBlue). Type of series: cell-based, human. To be noted: delivered together with chloroquine; data not shown. As to the method:
HCT-116 human colon carcinoma cells were obtained from ATCC, and cultured in McCoy's 5A medium supplemented with 10% FBS and 100 units/mL of penicillin/streptomycin.
HCT-116 cells were seeded at 10,000 cells per well in 96-well microplates with complete growth medium and left to attach for 48 h. Test reagents were prepared by first mixing the linear PEI (polyethylenimine) or chloroquine solution (fixed at 100 μM)) with Granzyme B (fixed at 2 μg/ml) for 15 min before adding HA-EGCG solution to the mixture and allow complexation to take place for 45 min. The medium in the wells was then aspirated and the cells were treated with the respective reagents for 48 h (all dilutions were made in serum-free medium). Cell viability was analyzed using AlamarBlue. Before analysis, the medium was aspirated and the cells were gently washed with PBS once before a mixture of 10 μl of alamarblue reagent with 100 μl of serum-containing medium was added to each well. The cells were incubated for 2 h and the fluorescence emission of each well was measured using a Tecan infinite Microplate Reader. The viabilities of treated cells were evaluated as a percentage of the negative control. Each data set is an average of 4 repeats.
Background: Alamar Blue is a resazurin reagent that responds to reducing activity.

T1 sequence (P00698 19-147): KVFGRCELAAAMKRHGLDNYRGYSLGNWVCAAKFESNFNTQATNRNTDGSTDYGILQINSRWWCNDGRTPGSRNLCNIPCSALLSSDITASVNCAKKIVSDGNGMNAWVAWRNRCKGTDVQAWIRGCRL

On to (−)-epigallocatechin gallate [EGCG], for which, on lysozyme [1] (EX 280 nm, concentration-dependent (FIG. 5)), the “quenching of intrinsic lysozyme fluorescence” value was “can quench the intrinsic fluorescence of lysozyme”. Further, the “quenching of intrinsic lysozyme fluorescence at the same EGCG concentration” value on lysozyme [1] (free EGCG vs HA-EGCG (FIG. 7)) is listed as “quenches intrinsic lysozyme fluorescence to a smaller degree than HA-EGCG”.

“free lysozyme: lysozyme from chicken egg white, model protein”: the apparent lysozyme activity with lysozyme [2] (0.001% w/v Triton-X, % of original activity of free lysozyme (FIG. 9b)) came to 140%. The “maximum apparent lysozyme activity (plateau)” value in the series with lysozyme [2] (0.01% and 0.1% Triton-X (FIG. 9b)) is “about 160%”.

B1: Granzyme: protease secreted by cytotoxic T lymphocytes, activates caspase and induces apoptosis (protein, UniProt P04187 21-247, looked up)
Granzyme B(G,H): IIGGHEVKPHSRPYMALLSIKDQQPEAICGGFLIREDFVLTAAHCEGSIINVTLGAHNIKEQEKTQQVIPMVKCIPHPDYNPKTFSNDIMLLKLKSKAKRTRAVRPLNLPRRNVNVKPGDVCYVAGWGRMAPMGKYSNTLQEVELTVQKDRECESYFKNRYNKTNQICAGDPKTKRASFRGDSGGPLVCKKVAAGIVSYGYKDGSPPRAFTKVSSFLSWIKKTMKSS
Take B1: the “cytotoxicity in HCT-116 cells” value in the series on HCT-116 cells is recorded as “induced cytotoxicity in HCT-116 cells”.

For the origin of these results see patent publication US9226899B2, “Particulate hyaluronic acid and flavonoid formulations for cellular delivery of bioactive agents” (AGENCY FOR SCIENCE, TECHNOLOGY AND RESEARCH, priority 2009, dated 2016).
